Four molecules from patent publication US20190031785A1 (COMPASS THERAPEUTICS, published 2019) can be followed below.

One may read the Kd as a measure of binding affinity in units of concentration.

The target of experiment [1] is T1, Recombinant human CD137 Fc fusion protein (Sino Biological) (human, UniProt Q07011 24-186).
T1 construct: not shown: Fc part of a bought fusion protein
Kind of experiment: ForteBio Octet bio-layer interferometry, sequential steps on one sensor: Her2 loading, blocking antibody, PID7, PD-1 (printed 'PI-1'), CD137.

For experiment [2], the target named is T2, Recombinant human PD-1 Fc fusion protein (Sino Biological) (human, UniProt Q15116 25-167).
T2 construct: not shown: Fc part of a bought fusion protein
Kind of experiment: BLI (ForteBio Octet); PD-1 Fc on Protein A sensors, 100 nM construct; column 'Affinity (nM)'. The protocol:
(§1) Antigen binding of MIAC constructs were analyzed using ForteBio Octet. […] All antigens were reconstituted in PBS at the final concentration of 0.25 ug/ul. […] Association proceeded by dipping sensors in 100 nM MIAC constructs for 5 minutes and disassociation occurred in blank kinetics buffer for 5 minutes. For CD3 epsilon binding, antigen was immobilized on Ni-NTA sensors; association was performed in 50 nM MIAC constructs. Binding data were analyzed using ForteBio Data Analysis 9.0 software.

Experiment [3] addresses T3, Recombinant human Her2 Fc fusion protein (Sino Biological) (human, UniProt P04626 23-652).
T3 construct: not shown: Fc part of a bought fusion protein
Kind of experiment: BLI (ForteBio Octet); antigen-Fc on Protein A sensors, construct in solution; NB: no binding detected. The protocol:
as §1
In general terms: BLI is a label-free optical method that tracks binding on a fibre tip over time.

The target of experiment [4] is T1, Recombinant human CD137 Fc fusion …. Described as above. The protocol: as §1
For experiment [5] the target is unchanged. Kind of experiment: BLI (ForteBio Octet); CD137 Fc on Protein A sensors, 100 nM construct; column 'Affinity (nM)'. As for the experimental part: as §1
Experiment [6] concerns the target T2, Recombinant human PD-1 Fc fusion …. Briefly: ForteBio Octet bio-layer interferometry, sequential steps on one sensor: Her2 loading, blocking antibody, PID92, PD-1 (printed 'PI-1'), CD137.
Experiment [7] has the same target. Briefly: BLI (ForteBio Octet); antigen-Fc on Protein A sensors, construct in solution; NB: no binding detected. As for the experimental part:
as §1

T2 sequence (Q15116 25-167 limits assumed): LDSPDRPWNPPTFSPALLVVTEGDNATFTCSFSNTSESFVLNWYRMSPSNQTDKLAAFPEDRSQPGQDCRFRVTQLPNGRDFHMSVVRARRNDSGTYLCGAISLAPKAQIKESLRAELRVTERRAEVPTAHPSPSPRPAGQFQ

B1: PID-7 (bispecific Her2/PD-1 MIAC; pembrolizumab IgG1 with trastuzumab scFv at the heavy chain C-termini) (bispecific antibody)
heavy: not shown
light: EIVLTQSPATLSLSPGERATLSCRASKGVSTSGYSYLHWYQQKPGQAPRLLIYLASYLESGVPARFSGSGSGTDFTLTISSLEPEDFAVYYCQHSRDLPLTFGGGTKVEIKRTVAAPSVFIFPPSDEQLKSGTASVVCLLNNFYPREAKVQWKVDNALQSGNSQESVTEQDSKDSTYSLSSTLTLSKADYEKHKVYACEVTHQGLSSPVTKSFNRGEC
notes: also called α-Her2/α-PD-1
For the molecule B1, in experiment [1], the binding result was “no binding”. Also, the Kd in experiment [2] turned out to be 0.12 nM.

B2: PID-2 (monospecific anti-PD-1; pembrolizumab Fab domain, human IgG1) (antibody, V domains shown)
VH: QVQLVQSGVEVKKPGASVKVSCKASGYTFTNYYMYWVRQAPGQGLEWMGGINPSNGGTNFNEKFKNRVTLTTDSSTTTAYMELKSLQFDDTAVYYCARRDYRFDMGFDYWGQGTTVTVSS
VL: EIVLTQSPATLSLSPGERATLSCRASKGVSTSGYSYLHWYQQKPGQAPRLLIYLASYLESGVPARFSGSGSGTDFTLTISSLEPEDFAVYYCQHSRDLPLTFGGGTKVEIKR
notes: also called PID2 (PD-1)
As to B2, the binding result in experiment [3] and in experiment [4] was “no binding (tested: 100 nM)” each time.

B3: PID-92 (bispecific Her2/CD137 MIAC; urelumab IgG1 with trastuzumab scFv at the heavy chain C-termini) (bispecific antibody)
heavy: not shown
light: not shown
notes: also called α-Her2/α-CD137 MIAC; PID92 [Her2/CD137]
With B3, in experiment [5], the dissociation constant Kd stood at 0.23 nM. In addition, in experiment [6], the binding result is “no binding”.

B4: PID-90 (monospecific anti-CD137; urelumab Fab domain, human IgG1) (antibody, V domains shown)
VH: QVQLQQWGAGLLKPSETLSLTCAVYGGSFSGYYWSWIRQSPEKGLEWIGEINHGGYVTYNPSLESRVTISVDTSKNQFSLKLSSVTAADTAVYYCARDYGPGNYDWYFDLWGRGTLVTVSS
VL: EIVLTQSPATLSLSPGERATLSCRASQSVSSYLAWYQQKPGQAPRLLIYDASNRATGIPARFSGSGSGTDFTLTISSLEPEDFAVYYCQQRSNWPPALTFGGGTKVEIKR
notes: also called PID90 (CD137)
In the case of B4, the binding result in experiment [3] and in experiment [7] was “no binding (tested: 100 nM)” throughout. Besides, the Kd in experiment [5] came to 0.7 nM.
